According to US20230077716A1:

Target: NA of B/New York/PV00094/17 (Y), on purified virus (Influenza B virus B/New York/PV00094/17)

Binder | percent competition [%]
3C01 monoclonal antibody (BNA-mAb) (antibody, V domains shown) VH: EVQLVESGGGLVQPGGSLRLSCAASGFPFSHYYMHWVRRAPGKGLVWVSRIYSDGTSSSYGDSVKGRFTISRDNAKNILYLQMNSLRAEDSATYYCCRGGYYSLDGFDFWGQGTMVTVSS VL: DIQMTQSPLSLSVSEGDRVTITCRASQGIGNDLGWYQLKPGKAPKRLIYGASSLQSGVPSRFSGSGSGTEFTLTISSLQPEDFATYFCLQHSSFPYTFGQGTKVEIK | 90
2H09 monoclonal antibody (BNA-mAb) (antibody, V domains shown) VH: EVQLVESGGGLVQPGGSLRLSCAASGVTLDNYWVHWVRQVPGKGLVWVSRINADGTSKTYADSVKGRFTISRDTTRNTLFLQMNSLRGDDTALYFCARGGLYSSDAFDVWGQGTMVTVSS VL: QSALTQPPSASGSPGQSVTISCTGTSWDVGRYNHVSWYQHHPGKAHKLIIYEVNRRPSGVPDRFSGSKSANTASLTVSGLQAEDEADYYCSSYTGNNVAVFGGGTKLTVL | 90
